Experimental data as given in paper PMC5885369, “2-Oxoglutarate regulates binding of hydroxylated hypoxia-inducible factor to prolyl hydroxylase domain 2† †Electronic supplementary information (ESI) available: Details of experimental procedures and additional experiments. See DOI: 10.1039/c8cc00387d” (Chemical Communications (Cambridge, England), 2018).
Square brackets hold non-standard residues; d marks the D form. Ends that are not written are not given here. Hyp = O=C(O)[C@@H]1C[C@@H](O)CN1

Biological target: T1, prolyl hydroxylase domain 2, PHD2_(181–426) (human, UniProt Q9GZT9 181-426)
T1 construct: Used apo, or with Fe(II), Zn(II), 2OG, succinate or fumarate; also called tPHD2; apo-tPHD2; source: recombinantly expressed
T1 sequence (Q9GZT9 181-426): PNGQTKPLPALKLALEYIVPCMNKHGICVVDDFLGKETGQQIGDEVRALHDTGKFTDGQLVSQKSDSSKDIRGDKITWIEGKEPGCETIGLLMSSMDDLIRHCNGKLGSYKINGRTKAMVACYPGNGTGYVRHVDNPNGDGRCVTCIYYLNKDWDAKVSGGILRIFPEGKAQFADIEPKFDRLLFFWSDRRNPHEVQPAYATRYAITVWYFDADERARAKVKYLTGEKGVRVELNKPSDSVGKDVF
Test: ITC; apo-tPHD2
Conditions: both partners purified

DLDLEMLA[Hyp]YIPMDDDFQL [hydroxylated 19-mer HIF-1α CODD peptide]
Kd: 4.6 ± 1.4 µM
